The source of these data is paper PMC9637919.

A word on the Kd: it is a measure of binding affinity in units of concentration. A higher Kd goes with weaker binding.

Holding throughout (assay): EMSA
(In general: In EMSA bound probe runs differently from free probe, usually more slowly.)

The target in series [1] is T1, Csy complex (type I-F surveillance complex);Cas2/3 (;, UniProt Q02ML9;Q02MM0;Q02MM1;Q02MM2;Q02ML8 1-434;1-327;1-342;1-187;1-1076, |).
In series [2] the target is T2, Csy complex (type I-F surveillance complex) (UniProt Q02ML9;Q02MM0;Q02MM1;Q02MM2 1-434;1-327;1-342;1-187).
T2 sequence 1: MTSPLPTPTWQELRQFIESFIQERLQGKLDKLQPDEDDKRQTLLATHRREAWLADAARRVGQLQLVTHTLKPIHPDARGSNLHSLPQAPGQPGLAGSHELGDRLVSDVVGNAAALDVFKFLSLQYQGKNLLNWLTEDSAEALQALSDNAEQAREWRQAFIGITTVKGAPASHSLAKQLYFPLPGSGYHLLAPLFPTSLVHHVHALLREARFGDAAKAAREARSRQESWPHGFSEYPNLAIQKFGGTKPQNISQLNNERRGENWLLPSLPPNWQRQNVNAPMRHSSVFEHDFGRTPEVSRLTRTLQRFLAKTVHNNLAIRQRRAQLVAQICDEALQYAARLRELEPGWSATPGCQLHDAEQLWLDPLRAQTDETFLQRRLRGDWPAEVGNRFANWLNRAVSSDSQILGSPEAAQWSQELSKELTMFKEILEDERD
T2 sequence 2: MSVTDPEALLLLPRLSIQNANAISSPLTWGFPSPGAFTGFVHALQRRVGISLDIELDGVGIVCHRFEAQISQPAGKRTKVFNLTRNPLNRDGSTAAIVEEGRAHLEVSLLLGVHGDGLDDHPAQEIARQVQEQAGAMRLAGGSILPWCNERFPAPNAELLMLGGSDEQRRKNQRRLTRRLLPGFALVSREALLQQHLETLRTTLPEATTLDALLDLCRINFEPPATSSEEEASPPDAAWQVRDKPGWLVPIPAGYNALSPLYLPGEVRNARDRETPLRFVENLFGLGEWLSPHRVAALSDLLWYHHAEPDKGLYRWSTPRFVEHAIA
T2 sequence 3: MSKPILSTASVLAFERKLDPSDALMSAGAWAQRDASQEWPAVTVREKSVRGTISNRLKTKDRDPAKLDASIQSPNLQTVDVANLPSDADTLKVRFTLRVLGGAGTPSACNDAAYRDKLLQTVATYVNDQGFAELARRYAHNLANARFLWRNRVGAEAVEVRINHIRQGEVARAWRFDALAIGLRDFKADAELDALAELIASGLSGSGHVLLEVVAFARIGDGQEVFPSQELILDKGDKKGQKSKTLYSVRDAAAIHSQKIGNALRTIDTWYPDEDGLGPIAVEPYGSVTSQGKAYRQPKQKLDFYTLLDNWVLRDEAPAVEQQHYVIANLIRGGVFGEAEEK
T2 sequence 4: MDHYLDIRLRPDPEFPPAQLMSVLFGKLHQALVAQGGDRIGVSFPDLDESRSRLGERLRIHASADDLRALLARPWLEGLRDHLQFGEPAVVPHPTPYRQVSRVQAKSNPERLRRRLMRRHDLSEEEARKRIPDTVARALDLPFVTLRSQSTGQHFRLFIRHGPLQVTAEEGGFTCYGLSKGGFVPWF

The target in series [3] is Csy M (Cas8f R299G/R302A);Cas2/3 (;, UniProt Q02ML9;Q02MM0;Q02MM1;Q02MM2;Q02ML8 1-434;1-327;1-342;1-187;1-1076, R299G;R302A|).
In series [4] the target is T1, Csy complex (type I-F surveillance …). The source holds these as a separate data set.

Like-named read-outs stand apart in the source and are kept apart here.

B1: 54-bp target dsDNA, 5'-FAM TS (dsDNA)
DNA 1: GGAAGCCATCCAGGTAGACGCGGACATCAAGCCCGCCGTGAAGGTGCAGCTGCT
DNA 2: AGCAGCTGCACCTTCACGGCGGGCTTGATGTCCGCGTCTACCTGGATGGCTTCC
Turning to B1, the binding result in series [1] is “binds”. The same molecule registered a dissociation constant Kd in series [2] of 9.46 ± 0.82 nM.

B2: 54-bp dsDNA bubble, 5'-FAM TS (dsDNA)
DNA 1: B1 DNA 1
DNA 2: AGCAGCTGCACCAAGTGCCGCCGCTTGATGTCCGCGTCTACCTGGATGGCTTCC
For B2, the binding result in series [3] and in series [4] was “binds” in each case. In series [2], the Kd was 8.15 ± 0.62 nM.
